{"source": "the DeepSol protein solubility set"}
{"assay": "soluble on expression in E. coli; label from the status in PepcDB or PDB records"}
{"sequence": "MEAESLADSGFPLEVFPQKMQSIIIDMVVHGNFKVDYVAMSMLSAASAALGNTYRIHVKQDWDTNAALYIILVGRPGMGKTPPLQLAYKPIREYERKLFDKFCHELDLYEAACATKESGSKEMKKPILKRVTLDDFTLEALVLEHYNNLRGIAINYDEILGLLANTDRYGKNPMLERLLSIWSGCHLENTRVKNDRPQRVEEPCVNIIGTTQTKRMKELMASKFMDTGFLDRILVVYPKSKKVPHWLDEEDSHVRQSEASRKWADIIGKIFGLDYARCNDTNECCPNILYMDKDAHSLFFGWWNRNVDAINAIEDDEDVETRVMKHNTHVARIALLLQALRYACGESHLQSIDVDSIEGALRLNEYCENCYQRCRAFVAEDTCDSMSKELLYLLEDSFDTKTAIKTGMENLHVTDRTVMNYIKELMKSGLITKAKKGFYEKVKFETGQATET", "soluble on expression in E. coli": "not soluble"}
{"sequence": "MKKAKSRIAILGTGGTIAGFIDSTIATTGYAAGAIDIDVLIKAVPQIRDLADISWEQIANIDSSNMCDEIWLRLAKKIAKLFAEGIDGVVITHGTDTMEETAYFLNLTIKSDKPVVLVGAMRPSTAISADGPKNLYNAVALVVNKEAKNKGVMVAINDKILSARGVVKTHSLNVDAFSSPDFGDLGYIVDGKVFFYNNVIKAHTKNAPFDVSKLTSLPKVDILYSYSNDGSGVAAKALFEHGTKGIVVAGSGAGSIHKNQKDVLKELLKKGLKVVVSSRVVAGCVAVSDSDEKLGFISAEDLNPQKARVLLMLALTKTSDPKKIQEYFLKY", "soluble on expression in E. coli": "soluble"}
{"sequence": "MIVRPVTSADLPALIELARSTGTGLTTLPANEQRLQHRVSWAEKAFRGEAERGDADYLFVLEDDAGKVVGISAIAGAVGLREPWYNYRVGLTVSASQELNIHREIPTLFLANDLTGNSELCSLFLHADHRSGLNGKLLSRARFLFIAEFRHLFGDKLIAEMRGMSDEEGRSPFWESLGRHFFKMEFSQADYLTGVGNKAFIAELMPKFPLYTCFLSEEARGVIGRVHPNTEPALAMLKAEGFSYQGYVDIFDAGPAIEAETDKIRAIAESQNLVLAVGTPGDDAEPYLIHNRKREDCRITAAPARAAAGTLVVDPLTAKRLRLSAGASVRAVPLSAQKRG", "soluble on expression in E. coli": "not soluble"}
{"sequence": "MSLTVPTILVIDDDVQVCETIASLLARLRYACETAHSLEQGLAILETAPVDVVFLDVRLPDGNGIDALPRIRQAPSHPEVIILTGEGDPDDAELAIQGGVWDYLVKPTPIKQTTLTLARALQYRAEKLSKGGGGTVALDLDGVVGISPSMRQCFDLVANAATTEANVLVTGETGTGKELLARTIHRNSPRRNGPFVVVDCAALTESLVESTLFGHKRGAFTGAQQDRDGLVKLADGGTLFLDEVGEMPLAIQRAFLRILQERSFRPVGGTQEIRSDFRLISATNRDLDAMVERGEFRKDLLFRLNTVHVELPPLRTRPEDLKPLAIFHMNRLAEQYGVPAKGFATDFFQQLAQYDWPGNVREFFNVLERSFVISGLEGVLYAMHLPQDVRIKITRASLARSEGHHHHHH", "soluble on expression in E. coli": "soluble"}
{"sequence": "MNLSNHFLIAMPDMEDAFFSQSVVYICKHDEDGALGIAINKPSPITMDMIFSATGKNIPMRMQHDSVMMGGPVQVERGYVVHTPIGNWQSSIGVSDNIALTSSRDVIENISREGAVDKALISIGYSSWSKGQLERELADNAWLTVPADEHILFDIPYEHRYAAAFAKLGIDPLALFSGAGHA", "soluble on expression in E. coli": "not soluble"}
{"sequence": "MSLARQVTAFNTGWQFKKGPFATDPMRAASQWDGKWETVEIPHTWNAMDMQVQSGSFYEGAGYYRKTQFFPHDLEGKRVFLRFEGVGACAEVYVNGKLAGTHKGGYSAFACEIGTALKLGAENEIIVKADNKARPDVIPVNQNLFGVYGGIYRPVWLIVTEQNNITVTDCASPGVYITQKDVSKKSADITVKVKLDNAGLQPAAVTLENTIYTQEGQKVGTHSRSFDLSPQGTQTYLSTFKLKNPHLWQGRKDPYLYKVVCRLMADGKVIDEVVQPLGVRKYEIVAGKGFFLNGEKYSMYGVTRHQDWWGLGSALKNEHHDFDLAAIMDVGATTVRFAHYQQSDYLYSRCDTLGLIIWAEIPCVNRVTGYETENAQSQLRELIRQSFNHPSIYVWGLHNEVYQPHEYTAALTRSLHDLAKTEDPDRYTVSVNGYGHMDHPVNLNADIQGMNRYFGWYEKKIQDIKPWVEQLEKDYPYQKLMLTEYGADANLAHQTEYLGDALNWGKPFYPETFQTKTHEYQWSIIKDHPYIIASYLWNMFDFAVPMWTRGGVPARNMKGLITFDRKTKKDSYFWYKANWSEEPVLYLTQREGHHHHHH", "soluble on expression in E. coli": "not soluble"}
{"sequence": "MSLAAHYLDFERPIADLESKIEELSRLSETAGPGAFDTEIQALRDRAQELRKEAYANLDAWQKTMVARHPQRPHLRDYVAGLIDEFVELRGDRKFADDQAIVGGLGRFRGQPVVVMGHEKGHDTTTRLKHNFGMARPEGYRKAVRLMDMAERFNLPVITFVDTAGAYPGLGAEERGQAEAIARSTERCLTLGVPMVATIVGEGGSGGAIALAGANRVLILEHSIYSVISPEGAASILWRDGARAKDAATQMRITAQDLIKLGIVDRIVEEPAGGAHSDTEAAIQAVGDAVEDELKAMAAMSPAELKKQRSDRFYAIGREGHHHHHH", "soluble on expression in E. coli": "soluble"}
{"sequence": "MGSDKIHHHHHHLGDHTLNQVTDTPLSQQHITQHTQVAPSRLAAAGLSASIMLLKRILKPFEHVQRHRHSWGQVIYASQGVLSVITPAGRYIVPPEQAVWVPPFVDHEVIALSQVQLSSLYLDDTQIGGFPPCCTCLNVKPVLQLLLQEVNAFMKSEAGLIDPDFKDSVMRLLMVIRDFMVLAPKVALDLPYPKDKKLLRITEALLADPSEQRTLVDWQREVGASARTLARLFKQQTGLSYSQWLQRLRLQVAIQMLSRGESVLTTALSLGYASGSAFGYMFRQLMGVAPSQYLLAQSTLPKVQCQK", "soluble on expression in E. coli": "not soluble"}
{"sequence": "MGSDKIHHHHHHMGYKNILIDFDDTIVDFYDAEEWAFHYMANVFNHKATKDDFLTFKKINHQHWEAFQQNKLTKSEVLSERFVNYFKHHQMEVDGHRADVLFRNGLAEAKVKYFDQTLETIVELSKRHDLYIVTNGVTETQKRRLNQTPLHKYIKKIFISEETGYQKPNPEFFNYVFNDIGEDERQHSIIVGDSLTSDILGGINAGIATCWFNFRGFDHNPGIIPDYEINSWKQLNDIVR", "soluble on expression in E. coli": "not soluble"}
{"sequence": "MSNEQPNNPLHGLSLEKIVTRLVEHFGWNGLYERVRVNCFKKDPSIKSSLKFLRKTQWARDKVEALYIETFCLEHHHHHH", "soluble on expression in E. coli": "not soluble"}
{"sequence": "MIVTEHLFAIEDQTECLISALLESDAVQNYKETKKAMYASAEVAQLQKAFLEAKSAFERVEAYGIHAPDFREKQRALRKAKRALDLNEIVANYRFAETNVQTLLDTIGLKIAQLISEDIKVDAGNPFFERGKKHSGCGGSCHAS", "soluble on expression in E. coli": "not soluble"}
{"sequence": "DDVPPRIARAMENEEYWDFDIFELEAATHNRPLIYLGLKMFARFGICEFLHCSESTLRSWLQIIEANYHSSNPYHNSTHSADVLHATAYFLSKERIKETLDPIDEVAALIAATIHDVDHPGRTNSFLCNAGSELAILYNDTAVLESHHAALAFQLTTGDDKCNIFKNMERNDYRTLRQGIIDMVLATEMTKHFEHVNKFVNSINKPLATLEENGETDKNQEVINTMLRTPENRTLIKRMLIKCADVSNPCRPLQYCIEWAARISEEYFSQTDEEKQQGLPVVMPVFDRNTCSIPKSQISFIDYFITDMFDAWDAFVDLPDLMQHLDNNFKYWKGLDEM", "soluble on expression in E. coli": "soluble"}
{"sequence": "GPGSMMREAGRQRRRNADSDESSSEDEQQQTTTTVQETTAAAPPARVRAKAPAAAVVSAPSMTLHADPTATQVTAPSAVSAETADSEGGSNEDAPSSAAAAAPPNEFSEEMEAIDYDALTYAALLDIMNRASRPVIEELMAQREQQVESTMQQQQNQRVERFLDVATTSSATAAEANGSSAEEEAAEGYRYNTMLTRLFEALNRNNEGSAMTERNQLPVPILERMGKKKTVIANFGRICDAFHRPMEDVKDFIEKELSIRGNLDSNNALILKFEIRKQTDFDRVLIKYLDEYVKCNSCHRIDTTLTKDGRRLELRCNVCTATRTVTAAGTATFSAQIEKRSRQRAAMIL", "soluble on expression in E. coli": "soluble"}
{"sequence": "MAVDVPGIISPKTAEAASQLTDGIGGRAYLNSNGAILVTKIQLPSSTQVSNGTAYIYSGFSGGTESDIGFQYSDKYNVWKPYMKVGSKGQDQVQYLEGGSQFTNTKGFRPGSTVQLTIYKNLNGNTRATYWGTNNAGYNGRLISEISKTNVGSISKWKALATVATTGSRQSIKSNFSTSFTNITIDNKAITPVIDTQDFAKVTVSGNSVSLSVVKNLEHHHHHH", "soluble on expression in E. coli": "soluble"}
{"sequence": "TDQAAFDTNIVTLTRFVMEEGRKARGTGEMTQLLNSLCTAVKAISTAVRKAGIAHLWGIAGSTNVTGDQVKKLDVLSNDLVINVLKSSFATCVLVSEEDKNAIIVEPEKRGKYVVCFDPLDGSSNIDCLVSIGTIFGIYRKNSTDEPSEKDALQPGRNLVAAGYALYGSATMLVLAMVNGVNCFMLDPAIGEFILVDRDVKIKKKGSIYSINEGYAKEFDPAITEYIQRKKFPPDNSAPYGARYVGSMVADVHRTLVYGGIFMYPANKKSPKGKLRLLYECNPMAYVMEKAGGLATTGKEAVLDIVPTDIHQRAPIILGSPEDVTELLEIYQKHAAK", "soluble on expression in E. coli": "soluble"}
{"sequence": "MGSDKIHHHHHHMNGFCARLRAITHNERLKMKIAVLLSGGVDSSYSAYSLKEQGHELVGIYLKLHASEKKHDLYIKNAQKACEFLGIPLEVLDFQKDFKSAVYDEFINAYEEGQTPNPCALCNPLMKFGLALDHALKLGCEKIATGHYARVKEIDKISYIQEALDKTKDQSYFLYALEHEVIAKLVFPLGDLLKKDIKPLALNAMPFLGTLETYKESQEICFVEKSYIDTLKKHVEVEKEGVVKNLQGEVIGTHKGYMQYTIGKRKGFSIKGALEPHFVVGIDAKKNELVVGKKEDLATHSLKAKNKSLMKDFKDGEYFIKARYRSVPAKAHVSLKDEVIEVGFKEPFYGVAKGQALVVYKDDILLGGGVIV", "soluble on expression in E. coli": "not soluble"}
{"sequence": "MGSDKIHHHHHHMLLTTRPPSPDSIPCCAGCSMARVCLAGNCDSDGEGPADGLAQRVIRLRKGEPLYLLGDPLAALFAVRVGTVKTHVATEDGRTQVVGFHFPGEVVGLDSIGRRQYASYATALEDTKVCMIPMDVLRPLAACTPALASRVFRALDGYAQRTRALQTLLALMTAEERLVTFLLWISEGLAARGFSSSEFILRMSREEIGSYIGLTLETVSRQFSRLAECGLIRVKHRSVALVDKAGLRAIADRSAISPIPPGTNRRRGGEQRVPAQALRTSAPAWATRTQPATAAMQADNPKINPFAWEAGNGQQ", "soluble on expression in E. coli": "not soluble"}
{"sequence": "MQVSPHDTSQPKQHAQSLSSASQSEAGKYTDGRETSARWLDDDSIAQRDLWNFIGDELKMGIPDNARIREQKTRYLKNKSYLHDVTLRAEPYMYWIVEQIKQRKMPMELVLLPIVESAFDPSATSSANAAGLWQIIPGTGRNYGLKQNQWYDGRRDVIASTTAALDMMQRLNTMFDGDWLLTVAAYNSGEGRVMQAMKANKAKGKPTNFWALALPRETSIYVPKMLALSDILKNSKKYGVNLPQPNESRALAKVELGQQIELTQAAEMAGLSLNKLKSYNSGYKRNVTAPNGPHYIMVPKAHVEQLKDSLADGDIAAIQPTRLEQTPASQQYKVRSGDTLSAIATRLNVSTKDLQSWNNLRSVGALKVGQTLQVAKASGTNGSITYQVRKGDSLASIAKRHGVNIADVMRWNTVINKNANIQPGDRLTLYVSSNIKPDSLEHHHHHH", "soluble on expression in E. coli": "soluble"}
{"sequence": "MNPVLKSSKLVIFDLDGTLYEGTDHFDYYANHLKQNVPQSQQLDFWRDYTAMKDGHHPVQIGKGYDVKRDYILTIDPMTISVQSVQTWDGSYVPAEEWETLYSDPVSFDFETIIAVGDGWWYPFVTAKHYGVEDCYASYVATKEYMVTDEFELTPLPGLREGLIELKATKEIVLVTNSDREDVQRLLHELHLHDVFNHIITSAKKPTRTTDIFKEVVHQYEVDMSQVVSVGDNFMNEIAQALTLGMQGIYIHPQRASEVAHDHLTVIRSVVELFKNLEHHHHHH", "soluble on expression in E. coli": "soluble"}
